B1: FLAG-tagged UbxD8 (wild type) (natural protein)
chain: MAAPEERDLTQEQTEKLLQFQDLTGIESMDQCRHTLEQHNWNIEAAVQDRLNEQEGVPSVFNPPPSRPLQVNTADHRIYSYVVSRPQPRGLLGWGYYLIMLPFRFTYYTILDIFRFALRFIRPDPRSRVTDPVGDIVSFMHSFEEKYGRAHPVFYQGTYSQALNDAKRELRFLLVYLHGDDHQDSDEFCRNTLCAPEVISLINTRMLFWACSTNKPEGYRVSQALRENTYPFLAMIMLKDRRMTVVGRLEGLIQPDDLINQLTFIMDANQTYLVSERLEREERNQTQVLRQQQDEAYLASLRADQEKERKKREERERKRRKEEEVQQQKLAEERRRQNLQEEKERKLECLPPEPSPDDPESVKIIFKLPNDSRVERRFHFSQSLTVIHDFLFSLKESPEKFQIEANFPRRVLPCIPSEEWPNPPTLQEAGLSHTEVLFVQDLTDE
B2: FLAG-tagged UBAC2 (recombinant, WT) (natural protein)
chain: HCQKLFVYDLHAVKNDFQIWRLICGRIICLDLKDTFCSSLLIYNFRIFERRYGSRKFASFLLGSWVLSALFDFLLIEAMQYFFGITAASNLPSGFLAPVFALFVPFYCSIPRVQVAQILGPLSITNKTLIYILGLQLFTSGSYIWIVAISGLMSGLCYDSKMFQVHQVLCIPSWMAKFFSWTLEPIFSSSEPTSEARIGMGATLDIQRQQRMELLDRQLMFSQFAQGRRQRQQQGGMINWNRLFPPLRQRQNVNYQGGRQSEPAAPPLEVSEEQVARLMEMGFSRGDALEALRASNNDLNVATNFLLQH

Assays:
FLAG-tagged gp78 = FLAG-tagged gp78 (UniProt Q9UKV5 1-643); experiment: co-IP
Chain of FLAG-tagged gp78 (Q9UKV5 whole entry): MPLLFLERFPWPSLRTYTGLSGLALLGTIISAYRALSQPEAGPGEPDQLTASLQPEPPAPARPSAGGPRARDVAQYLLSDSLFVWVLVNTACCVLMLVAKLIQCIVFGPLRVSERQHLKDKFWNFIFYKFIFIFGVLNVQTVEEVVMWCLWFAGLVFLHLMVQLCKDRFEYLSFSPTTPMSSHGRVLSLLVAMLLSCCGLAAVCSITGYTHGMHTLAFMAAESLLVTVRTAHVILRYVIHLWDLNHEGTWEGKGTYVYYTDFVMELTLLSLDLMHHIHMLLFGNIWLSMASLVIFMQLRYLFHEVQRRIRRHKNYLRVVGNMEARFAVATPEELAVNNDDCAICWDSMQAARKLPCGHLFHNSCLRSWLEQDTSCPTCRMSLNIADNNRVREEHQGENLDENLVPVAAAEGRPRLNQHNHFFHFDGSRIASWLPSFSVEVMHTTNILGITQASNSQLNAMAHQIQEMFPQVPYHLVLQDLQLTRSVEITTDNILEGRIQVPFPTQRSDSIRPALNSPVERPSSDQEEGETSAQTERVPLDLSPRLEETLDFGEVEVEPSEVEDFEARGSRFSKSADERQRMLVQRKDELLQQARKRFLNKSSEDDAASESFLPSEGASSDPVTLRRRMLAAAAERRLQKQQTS

[1] = molecular target: B1; experiment: co-IP

Binder | stoichiometry N (FLAG-tagged gp78) | stoichiometry N [1]
B1 | ~1 UbxD8 per gp78 | 
B2 | ~2 UBAC2 per gp78 | ~2 UBAC2 per UbxD8
